Measurements from patent US7427404.

Molecular target: monoclonal anti-S1 antibody 1B7
Assay: competition RIA: 1B7 coated on plate, 125I-PT displaced by unlabelled toxin

Substance	Ka [M⁻¹]
PT-129G (from UniProt P04978 28-226; P04979 29-227; P0A3R5 43-152; P04981 35-133)	2.1e+08
PT-13L/129G (from UniProt P04978 28-226; P04979 29-227; P0A3R5 43-152; P04981 35-133)	1.3e+08
PT-26I/129G (from UniProt P04978 28-226; P04979 29-227; P0A3R5 43-152; P04981 35-133)	5.5e+07
